Experimental data from US20250011363A1, “OPTIMIZED SHORTENED PEPTIDE THAT BINDS TO ACETYLCHOLINE RECEPTOR, AND USE THEREOF” (SKINMED CO., LTD., priority 2021, published 2025).

Each binder was assayed against acetylcholine receptor (assay: SPR, AchR immobilised on CM5 chip, peptide at 10 uM).
Binder RYHWR [5mer-896] has a Binding affinity (RU) of 27 RU.
In the case of KKWQQK [6mer-1-453], the Binding affinity (RU) is reported as 154 RU.
RRWVYK [6mer-1-459] was tested, and the Binding affinity (RU) was 131 RU.
Work on RRQRLK [6mer-1-464] yielded a Binding affinity (RU) of 131 RU.
Work on RRRQQK [6mer-1-447] yielded a Binding affinity (RU) of 146 RU.
KRGRSR [6mer-1-408] was tested, and the Binding affinity (RU) was 147 RU.
RKVLLR [6mer-1-406] showed a Binding affinity (RU) of 153 RU.
With RKVLYR [6mer-1-421] the Binding affinity (RU) was 135 RU.
Work on RRGYTR [6mer-1-461] yielded a Binding affinity (RU) of 142 RU.
RKLLCR [6mer-1-457] gave a Binding affinity (RU) of 121 RU.
For KKQLQK [6mer-1-430], the Binding affinity (RU) was 144 RU.
For KKWILK [6mer-1-444], the Binding affinity (RU) was 144 RU.
Work on RKWFLK [6mer-1-437] yielded a Binding affinity (RU) of 131 RU.
With RKVLLK [6mer-1-443] the Binding affinity (RU) was 145 RU.
KRWVCR [6mer-1-434] showed a Binding affinity (RU) of 137 RU.
In the case of RDNGK [5mer-1194], the Binding affinity (RU) is reported as 18 RU.
Binder RRVYYR [6mer-1-441] has a Binding affinity (RU) of 146 RU.
For RKQFCR [6mer-1-413], the Binding affinity (RU) was 148 RU.
Work on KKQRQK [6mer-1-404] yielded a Binding affinity (RU) of 137 RU.
In the case of RRRFRR [6mer-1-431], the Binding affinity (RU) is reported as 144 RU.
KRGRCK [6mer-1-449] was tested, and the Binding affinity (RU) was 135 RU.
For RKGVQK [6mer-1-425], the Binding affinity (RU) was 131 RU.
KRWVLR [6mer-1-427] was tested, and the Binding affinity (RU) was 147 RU.
KRVYSK [6mer-1-440] gave a Binding affinity (RU) of 153 RU.
RKVRLR [6mer-1-451] was tested, and the Binding affinity (RU) was 153 RU.
Binder KRVRLR [6mer-1-445] has a Binding affinity (RU) of 145 RU.
RKQVYK [6mer-1-465] was tested, and the Binding affinity (RU) was 154 RU.
Work on KRSFLR [6mer-1-414] yielded a Binding affinity (RU) of 153 RU.
For RRQRSR [6mer-1-411], the Binding affinity (RU) was 121 RU.
In the case of KKVQTR [6mer-1-1405], the Binding affinity (RU) is reported as 148 RU.
KRLYTR [6mer-1-452] was tested, and the Binding affinity (RU) was 141 RU.
RRGVCR [6mer-1-415] showed a Binding affinity (RU) of 135 RU.
For RRRVLR [6mer-1-402], the Binding affinity (RU) was 153 RU.
KKGQYK [6mer-1-420] gave a Binding affinity (RU) of 148 RU.
RKGIQK [6mer-1-432] was tested, and the Binding affinity (RU) was 139 RU.
Work on RRQRRK [6mer-1-429] yielded a Binding affinity (RU) of 135 RU.
Binder KRGFYR [6mer-1-419] has a Binding affinity (RU) of 148 RU.
Binder KKLFYK [6mer-1-436] has a Binding affinity (RU) of 148 RU.
Work on RRGQYR [6mer-1-456] yielded a Binding affinity (RU) of 153 RU.
KRVRQR [6mer-1-422] showed a Binding affinity (RU) of 154 RU.
For KRSQTK [6mer-1-403], the Binding affinity (RU) was 153 RU.
With KRVVLR [6mer-1-428] the Binding affinity (RU) was 139 RU.
With KRSICR [6mer-1-466] the Binding affinity (RU) was 148 RU.
In the case of RRVFYK [6mer-1-455], the Binding affinity (RU) is reported as 126 RU.
RICIR [5mer-1196] gave a Binding affinity (RU) of 24 RU.
KDDAR [5mer-1197] was tested, and the Binding affinity (RU) was 24 RU.
With RRWISR [6mer-1-409] the Binding affinity (RU) was 144 RU.
KFCER [5mer-897] showed a Binding affinity (RU) of 30 RU.
For RRGYCK [6mer-1-423], the Binding affinity (RU) was 147 RU.
RFTKK [5mer-895] was tested, and the Binding affinity (RU) was 18 RU.
RKLQYK [6mer-1-442] gave a Binding affinity (RU) of 131 RU.
KRVLRK [6mer-1-410] gave a Binding affinity (RU) of 148 RU.
Binder RKVLRR [6mer-1-454] has a Binding affinity (RU) of 124 RU.
For RRQVRK [6mer-1-418], the Binding affinity (RU) was 123 RU.
RKRFSR [6mer-1-448] was tested, and the Binding affinity (RU) was 141 RU.
Work on RRVIRR [6mer-1-446] yielded a Binding affinity (RU) of 124 RU.
Work on RHWEK [5mer-1195] yielded a Binding affinity (RU) of 19 RU.
With RRRIYR [6mer-1-424] the Binding affinity (RU) was 135 RU.
KKGQYR [6mer-1-426] was tested, and the Binding affinity (RU) was 131 RU.
RKGQLK [6mer-1-1458] was tested, and the Binding affinity (RU) was 139 RU.
For RYCMR [5mer-898], the Binding affinity (RU) was 20 RU.
With RRGFQK [6mer-1-438] the Binding affinity (RU) was 142 RU.
Binder RKQQYR [6mer-1-433] has a Binding affinity (RU) of 154 RU.
RKLIYR [6mer-1-416] was tested, and the Binding affinity (RU) was 153 RU.
Binder KRRQTK [6mer-1-439] has a Binding affinity (RU) of 121 RU.
Work on RRGFYR [6mer-1-460] yielded a Binding affinity (RU) of 148 RU.
Binder RKSILK [6mer-1-412] has a Binding affinity (RU) of 139 RU.
For RAADK [5mer-1198], the Binding affinity (RU) was 25 RU.
Binder RKSVCK [6mer-1-417] has a Binding affinity (RU) of 139 RU.
Work on KRSFRK [6mer-1-463] yielded a Binding affinity (RU) of 153 RU.
KRGYQK [6mer-1-467] gave a Binding affinity (RU) of 121 RU.
RKQILK [6mer-1-462] gave a Binding affinity (RU) of 126 RU.
RKVVYK [6mer-1-450] showed a Binding affinity (RU) of 151 RU.
KRLRTR [6mer-1-407] showed a Binding affinity (RU) of 153 RU.
For RKWRCK [6mer-1-435], the Binding affinity (RU) was 135 RU.

The binders below were run against acetylcholine receptor (assay: SPR, AchR immobilised on chip, peptide at 10 uM).
KWVQRK [6mer-2-269] was tested, and the Binding affinity was 123 RU.
Work on KSRLRR [6mer-2-270] yielded a Binding affinity of 148 RU.
RLFQKK [6mer-2-271] showed a Binding affinity of 131 RU.
